Measured values taken from IntAct's records for PubMed 31515488.

B1: Microtubule-associated protein RP/EB family member 1 (Homo sapiens), Q15691 (parent)
chain: MAVNVYSTSVTSDNLSRHDMLAWINESLQLNLTKIEQLCSGAAYCQFMDMLFPGSIALKKVKFQAKLEHEYIQNFKILQAGFKRMGVDKIIPVDKLVKGKFQDNFEFVQWFKKFFDANYDGKDYDPVAARQGQETAVAPSLVAPALNKPKKPLTSSSAAPQRPISTQRTAAAPKAGPGVVRKNPGVGNGDDEAAELMQQVNVLKLTVEDLEKERDFYFGKLRNIELICQENEGENDPVLQRIVDILYATDEGFVIPDEGGPQEEQEEY
B2: G patch domain and ankyrin repeat-containing protein 1 (Homo sapiens), O95872 (parent)
chain: MSRPLLITFTPATDPSDLWKDGQQQPQPEKPESTLDGAAARAFYEALIGDESSAPDSQRSQTEPARERKRKKRRIMKAPAAEAVAEGASGRHGQGRSLEAEDKMTHRILRAAQEGDLPELRRLLEPHEAGGAGGNINARDAFWWTPLMCAARAGQGAAVSYLLGRGAAWVGVCELSGRDAAQLAEEAGFPEVARMVRESHGETRSPENRSPTPSLQYCENCDTHFQDSNHRTSTAHLLSLSQGPQPPNLPLGVPISSPGFKLLLRGGWEPGMGLGPRGEGRANPIPTVLKRDQEGLGYRSAPQPRVTHFPAWDTRAVAGRERPPRVATLSWREERRREEKDRAWERDLRTYMNLEF
partner: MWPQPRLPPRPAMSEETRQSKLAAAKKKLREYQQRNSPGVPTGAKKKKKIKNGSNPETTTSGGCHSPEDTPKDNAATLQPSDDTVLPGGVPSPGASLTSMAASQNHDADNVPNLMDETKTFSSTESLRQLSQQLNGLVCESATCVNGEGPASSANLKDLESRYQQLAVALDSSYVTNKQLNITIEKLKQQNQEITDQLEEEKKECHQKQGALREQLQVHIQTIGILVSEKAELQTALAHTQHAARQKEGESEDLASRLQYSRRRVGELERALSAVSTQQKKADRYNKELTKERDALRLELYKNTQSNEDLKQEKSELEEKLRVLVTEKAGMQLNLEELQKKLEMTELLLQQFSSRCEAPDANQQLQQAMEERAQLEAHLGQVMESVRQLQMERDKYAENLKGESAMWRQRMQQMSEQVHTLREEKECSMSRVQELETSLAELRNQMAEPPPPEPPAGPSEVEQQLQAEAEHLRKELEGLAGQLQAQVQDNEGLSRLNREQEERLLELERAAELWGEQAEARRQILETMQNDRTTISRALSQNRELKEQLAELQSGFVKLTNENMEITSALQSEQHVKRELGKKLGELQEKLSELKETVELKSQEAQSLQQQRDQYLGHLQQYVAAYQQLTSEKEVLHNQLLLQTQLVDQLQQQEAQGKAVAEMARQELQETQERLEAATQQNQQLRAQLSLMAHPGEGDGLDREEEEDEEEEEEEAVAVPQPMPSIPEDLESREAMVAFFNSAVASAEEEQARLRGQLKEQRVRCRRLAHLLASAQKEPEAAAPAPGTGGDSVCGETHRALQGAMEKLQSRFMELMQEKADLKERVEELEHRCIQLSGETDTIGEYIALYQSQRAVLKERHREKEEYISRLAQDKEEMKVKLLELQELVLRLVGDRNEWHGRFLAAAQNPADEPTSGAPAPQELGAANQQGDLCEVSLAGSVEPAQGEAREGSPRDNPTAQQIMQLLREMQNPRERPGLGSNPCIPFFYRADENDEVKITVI
B3: Transcription factor 19 (Homo sapiens), Q9Y242 (parent)
chain: MLPCFQLLRIGGGRGGDLYTFHPPAGAGCTYRLGHRADLCDVALRPQQEPGLISGIHAELHAEPRGDDWRVSLEDHSSQGTLVNNVRLPRGHRLELSDGDLLTFGPEGPPGTSPSEFYFMFQQVRVKPQDFAAITIPRSRGEARVGAGFRPMLPSQGAPQRPLSTFSPAPKATLILNSIGSLSKLRPQPLTFSPSWGGPKSLPVPAPPGEMGTTPSAPPQRNRRKSVHRVLAELDDESEPPENPPPVLMEPRKKLRVDKAPLTPTGNRRGRPRKYPVSAPMAPPAVGGGEPCAAPCCCLPQEETVAWVQCDGCDVWFHVACVGCSIQAAREADFRCPGCRAGIQT
partner: B2 partner
B4: DNA replication complex GINS protein PSF2 (Homo sapiens), Q9Y248 (parent)
chain: MDAAEVEFLAEKELVTIIPNFSLDKIYLIGGDLGPFNPGLPVEVPLWLAINLKQRQKCRLLPPEWMDVEKLEKMRDHERKEETFTPMPSPYYMELTKLLLNHASDNIPKADEIRTLVKDMWDTRIAKLRVSADSFVRQQEAHAKLDNLTLMEINTSGTFLTQALNHMYKLRTNLQPLESTQSQDF
B5: Calcium-binding and coiled-coil domain-containing protein 2 (Homo sapiens), Q13137 (parent)
chain: MEETIKDPPTSAVLLDHCHFSQVIFNSVEKFYIPGGDVTCHYTFTQHFIPRRKDWIGIFRVGWKTTREYYTFMWVTLPIDLNNKSAKQQEVQFKAYYLPKDDEYYQFCYVDEDGVVRGASIPFQFRPENEEDILVVTTQGEVEEIEQHNKELCKENQELKDSCISLQKQNSDMQAELQKKQEELETLQSINKKLELKVKEQKDYWETELLQLKEQNQKMSSENEKMGIRVDQLQAQLSTQEKEMEKLVQGDQDKTEQLEQLKKENDHLFLSLTEQRKDQKKLEQTVEQMKQNETTAMKKQQELMDENFDLSKRLSENEIICNALQRQKERLEGENDLLKRENSRLLSYMGLDFNSLPYQVPTSDEGGARQNPGLAYGNPYSGIQESSSPSPLSIKKCPICKADDICDHTLEQQQMQPLCFNCPICDKIFPATEKQIFEDHVFCHSL
partner: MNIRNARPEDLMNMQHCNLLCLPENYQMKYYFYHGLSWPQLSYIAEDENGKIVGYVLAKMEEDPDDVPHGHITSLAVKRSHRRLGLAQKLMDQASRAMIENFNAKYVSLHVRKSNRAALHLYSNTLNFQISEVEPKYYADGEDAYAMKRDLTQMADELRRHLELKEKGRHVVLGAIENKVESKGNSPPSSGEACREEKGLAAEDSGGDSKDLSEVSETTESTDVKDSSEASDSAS
B6: Cyclic AMP-responsive element-binding protein 3-like protein 1 (Homo sapiens), Q96BA8 (parent)
chain: MDAVLEPFPADRLFPGSSFLDLGDLNESDFLNNAHFPEHLDHFTENMEDFSNDLFSSFFDDPVLDEKSPLLDMELDSPTPGIQAEHSYSLSGDSAPQSPLVPIKMEDTTQDAEHGAWALGHKLCSIMVKQEQSPELPVDPLAAPSAMAAAAAMATTPLLGLSPLSRLPIPHQAPGEMTQLPVIKAEPLEVNQFLKVTPEDLVQMPPTPPSSHGSDSDGSQSPRSLPPSSPVRPMARSSTAISTSPLLTAPHKLQGTSGPLLLTEEEKRTLIAEGYPIPTKLPLTKAEEKALKRVRRKIKNKISAQESRRKKKEYVECLEKKVETFTSENNELWKKVETLENANRTLLQQLQKLQTLVTNKISRPYKMAATQTGTCLMVAALCFVLVLGSLVPCLPEFSSGSQTVKEDPLAADGVYTASQMPSRSLLFYDDGAGLWEDGRSTLLPMEPPDGWEINPGGPAEQRPRDHLQHDHLDSTHETTKYLSEAWPKDGGNGTSPDFSHSKEWFHDRDLGPNTTIKLS
partner: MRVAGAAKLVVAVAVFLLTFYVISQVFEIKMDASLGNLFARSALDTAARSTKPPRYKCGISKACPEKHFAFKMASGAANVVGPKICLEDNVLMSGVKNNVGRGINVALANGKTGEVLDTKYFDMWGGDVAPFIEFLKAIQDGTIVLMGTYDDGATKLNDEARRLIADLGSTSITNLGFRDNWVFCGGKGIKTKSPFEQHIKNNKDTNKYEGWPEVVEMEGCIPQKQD

Variants of: B1
Settings: with mare3_human MAPRE3, Q9UPY8
Sequence of mare3_human MAPRE3, Q9UPY8 (Q9UPY8 whole entry): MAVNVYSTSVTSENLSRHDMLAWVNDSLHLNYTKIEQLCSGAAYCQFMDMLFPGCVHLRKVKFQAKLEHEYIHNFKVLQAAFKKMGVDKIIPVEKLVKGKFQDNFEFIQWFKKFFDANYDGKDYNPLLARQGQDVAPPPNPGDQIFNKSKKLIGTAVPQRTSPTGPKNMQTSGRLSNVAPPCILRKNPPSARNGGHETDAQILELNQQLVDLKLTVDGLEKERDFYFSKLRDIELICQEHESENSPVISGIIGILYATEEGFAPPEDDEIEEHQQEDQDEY
N201S was tested, and the “effect of a mutation on the interaction” value was “with no effect”.

Variants of: B2
Settings: with goga2_human GOLGA2, Q08379
In the case of R41L, the “effect of a mutation on the interaction” value is reported as “with no effect”.

Variants of: B3
Settings: with goga2_human GOLGA2, Q08379
For A279V, the “effect of a mutation on the interaction” value was “with no effect”.

Variants of: B4
Settings: with sld5_human GINS4, Q9BRT9
Sequence of sld5_human GINS4, Q9BRT9 (Q9BRT9 whole entry): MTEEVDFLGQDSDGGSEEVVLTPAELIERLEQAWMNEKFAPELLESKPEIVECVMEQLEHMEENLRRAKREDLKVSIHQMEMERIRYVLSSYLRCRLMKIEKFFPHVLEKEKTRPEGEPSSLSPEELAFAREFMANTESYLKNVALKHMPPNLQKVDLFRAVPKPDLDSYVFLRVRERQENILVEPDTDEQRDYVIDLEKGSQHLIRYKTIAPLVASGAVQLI
With D24G the “effect of a mutation on the interaction” value was “with no effect”.
I26T was tested, and the “effect of a mutation on the interaction” value was “with no effect”.
In the case of L150S, the “effect of a mutation on the interaction” value is reported as “with no effect”.
With T172K the “effect of a mutation on the interaction” value was “with no effect”.

Variants of: B5
Settings: with naa10_human NAA10, P41227
With E222K the “effect of a mutation on the interaction” value was “with no effect”.
With T273A the “effect of a mutation on the interaction” value was “with no effect”.
In the case of P389A, the “effect of a mutation on the interaction” value is reported as “with no effect”.

Variants of: B6
Settings: with fam3c_human FAM3C
With I516S the “effect of a mutation on the interaction” value was “with no effect”.
